Measurements: patent publication US20120178701A1 (PALATIN TECHNOLOGIES, published 2012)
Numbered stars: 1 amine (or outer) side, 2 acyl side, 3 side chain; on linkers, the order of the positions; unused ones are H or OH. Bridge positions count the residues as written; N and C are the ends. Square brackets hold non-standard residues; d marks the D form. Hyp(Bzl) = O-benzyl-hydroxyproline, O=C([C@@H]1C[C@@H](OCc2ccccc2)CN1[*:1])[*:2]; Pro(trans-4-NH2) = O=C([C@@H]1C[C@@H](N[*:3])CN1[*:1])[*:2]; Met(O2) = CS(=O)(=O)CC[C@H](N)C(=O)O; Orn = NCCC[C@H](N)C(=O)O

B1: Ac-Gln-cyclo(Asp-Dab-D-Phe-Arg-Trp-Lys)-NH2 (peptide)
peptide: QDXFRWK
HELM: PEPTIDE1{[ac].Q.D.[Dab].[dF].R.W.K.[am]}$PEPTIDE1,PEPTIDE1,3:R3-8:R3$$$V2.0
SMILES: CC(=O)N[C@@H](CCC(N)=O)C(=O)N[C@H]1CC(=O)NCCCC[C@@H](C(N)=O)NC(=O)[C@H](Cc2c[nH]c3ccccc23)NC(=O)[C@H](CCCNC(=N)N)NC(=O)[C@@H](Cc2ccccc2)NC(=O)[C@H](CCN)NC1=O
notes: also called peptide No. 142
B2: Ac-Orn-cyclo(Orn-Asn-D-Phe-Arg-Trp-Glu)-NH2 (peptide)
peptide: XXNFRWE
HELM: PEPTIDE1{[ac].[Orn].[Orn].N.[dF].R.W.E.[am]}$PEPTIDE1,PEPTIDE1,3:R3-8:R3$$$V2.0
SMILES: CC(=O)N[C@@H](CCCN)C(=O)N[C@H]1CCCNC(=O)CC[C@@H](C(N)=O)NC(=O)[C@H](Cc2c[nH]c3ccccc23)NC(=O)[C@H](CCCNC(=N)N)NC(=O)[C@@H](Cc2ccccc2)NC(=O)[C@H](CC(N)=O)NC1=O
notes: also called peptide No. 158
B3: Ac-Arg-cyclo(Lys-Dab-D-Phe-Arg-Trp-Asp)-OH (peptide)
peptide: RKXFRWD
HELM: PEPTIDE1{[ac].R.K.[Dab].[dF].R.W.D}$PEPTIDE1,PEPTIDE1,3:R3-8:R3$$$V2.0
SMILES: CC(=O)N[C@@H](CCCNC(=N)N)C(=O)N[C@H]1CCCCNC(=O)C[C@@H](C(=O)O)NC(=O)[C@H](Cc2c[nH]c3ccccc23)NC(=O)[C@H](CCCNC(=N)N)NC(=O)[C@@H](Cc2ccccc2)NC(=O)[C@H](CCN)NC1=O
notes: also called peptide No. 131
B4: Ac-Arg-cyclo(Asp-His-D-Nal 1-Arg-Trp-Lys)-NH2 (peptide)
peptide: RDHXRWK
modifications: N-acetyl; X4 = D-Nal 1 (D-3-(1-naphthyl)alanine); side-chain lactam Asp2-Lys7; C-terminal amide
notes: also called peptide No. 19
B5: Ac-Arg-cyclo(Asp-Ala-D-Phe-Lys-Trp-Lys)-NH2 (peptide)
peptide: RDAFKWK
HELM: PEPTIDE1{[ac].R.D.A.[dF].K.W.K.[am]}$PEPTIDE1,PEPTIDE1,3:R3-8:R3$$$V2.0
SMILES: CC(=O)N[C@@H](CCCNC(=N)N)C(=O)N[C@H]1CC(=O)NCCCC[C@@H](C(N)=O)NC(=O)[C@H](Cc2c[nH]c3ccccc23)NC(=O)[C@H](CCCCN)NC(=O)[C@@H](Cc2ccccc2)NC(=O)[C@H](C)NC1=O
notes: also called peptide No. 8
B6: Ac-Arg-cyclo(Asp-Ala-D-Phe-Arg-Trp-Lys)-OH (peptide)
peptide: RDAFRWK
HELM: PEPTIDE1{[ac].R.D.A.[dF].R.W.K}$PEPTIDE1,PEPTIDE1,3:R3-8:R3$$$V2.0
SMILES: CC(=O)N[C@@H](CCCNC(=N)N)C(=O)N[C@H]1CC(=O)NCCCC[C@@H](C(=O)O)NC(=O)[C@H](Cc2c[nH]c3ccccc23)NC(=O)[C@H](CCCNC(=N)N)NC(=O)[C@@H](Cc2ccccc2)NC(=O)[C@H](C)NC1=O
notes: also called peptide No. 52

target: T1, human recombinant melanocortin-4 receptor (human, UniProt P32245 1-332); assay: competitive inhibition of [I125]-NDP-α-MSH, hMC4-R HEK-293 membranes
T1 construct: whole, on cells; cAMP assays used the whole cells; also called hMC4-R; MC4-R
T1 sequence (P32245 whole entry): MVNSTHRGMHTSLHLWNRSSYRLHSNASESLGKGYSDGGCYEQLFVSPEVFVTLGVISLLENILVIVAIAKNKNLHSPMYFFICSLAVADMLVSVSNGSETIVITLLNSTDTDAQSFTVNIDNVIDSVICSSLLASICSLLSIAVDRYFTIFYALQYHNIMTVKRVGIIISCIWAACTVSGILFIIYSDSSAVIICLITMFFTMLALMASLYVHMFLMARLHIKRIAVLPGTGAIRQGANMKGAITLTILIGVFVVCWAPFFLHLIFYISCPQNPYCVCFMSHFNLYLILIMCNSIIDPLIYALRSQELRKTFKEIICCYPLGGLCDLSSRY
Procedure: A competitive inhibition binding assay is performed using membrane homogenates prepared from HEK-293 cells that express recombinant hMC4-R, hMC3-R, or hMC5-R, and from B-16 mouse melanoma cells (containing endogenous MC1-R). In some instances, HEK-293 cells that express recombinant hMC1-R were employed. In the examples that follow, all MC3-R, MC4-R and MC5-R values are for human recombinant receptors. […] Membrane homogenates were incubated with 0.2 nM (for hMC4-R) 0.4 nM (for MC3-R and MC5-R) or 0.1 nM (for mouse B16 MC1-R or hMC1-R) [I¹²⁵]-NDP-α-MSH (Perkin Elmer) and increasing concentrations of test peptides of the present invention in buffer containing 25 mM HEPES buffer (pH 7.5) with 100 mM NaCl, 2 mM CaCl₂, 2 mM MgCl₂, 0.3 mM 1,10-phenanthroline, and 0.2% bovine serum albumin. After incubation for 60 minutes at 37° C., the assay mixture was filtered and the membranes washed three times with ice-cold buffer. Filters were dried and counted in a gamma counter for bound radioactivity. […] Maximal specific binding (100%) was defined as the difference in radioactivity (cpm) bound to cell membranes in the absence and presence of 1 μM NDP-α-MSH. […] Each assay was conducted in triplicate and the actual mean values are described, with results less than 0% reported as 0%. Ki values for test peptides of the present invention were determined using Graph-Pad Prism® curve-fitting software.
(§1) 9.1 Peptides of the following structures were synthesized by the general methods described above, and averaged MC4-R Ki values for peptides were determined as indicated. […] Ki values marked “ND” were not determined.

Ki [nM] | Binder
8 | Ac-RE[Met(O2)][dF]RW[Orn]-NH2 (lactam 2-7, also called peptide No. 100) [Ac-Arg-cyclo(Glu-Met(O2)-D-Phe-Arg-Trp-Orn)-NH2]
15 | Ac-REK[dF]RW[Orn]-NH2 (lactam 2-7) [Ac-Arg-cyclo(Glu-Lys-D-Phe-Arg-Trp-Orn)-NH2]
167 | Ac-REN[dF]RW[Orn]-OH (lactam 2-7, also called peptide No. 91) [Ac-Arg-cyclo(Glu-Asn-D-Phe-Arg-Trp-Orn)-OH]
9 | Ac-RE[Orn][dF]RW[Orn]-OH (lactam 2-7, also called peptide No. 90) [Ac-Arg-cyclo(Glu-Orn-D-Phe-Arg-Trp-Orn)-OH]
12 | Ac-RD[Pro(Bn)][dF]RWK-OH (lactam 2-7, also called peptide No. 55) [Ac-Arg-cyclo(Asp-Pro(Bn)-D-Phe-Arg-Trp-Lys)-OH]
6 | H-R[Orn]H[dF]RWE-NH2 (lactam 2-7, also called peptide No. 99) [Arg-cyclo(Orn-His-D-Phe-Arg-Trp-Glu)-NH2]
4 | Ac-RKQ[dF]RWD-NH2 (lactam 2-7, also called peptide No. 151) [Ac-Arg-cyclo(Lys-Gln-D-Phe-Arg-Trp-Asp)-NH2]
15 | B1
4 | Ac-REH[dF]RW[Orn]-OH (lactam 2-7, also called peptide No. 82) [Ac-Arg-cyclo(Glu-His-D-Phe-Arg-Trp-Orn)-OH]
50 | B2
35 | B3
3 | B4
7 | Ac-RE[Orn](Ac)[dF]RW[Orn]-NH2 (lactam 2-7, also called peptide No. 149) [Ac-Arg-cyclo(Glu-Orn(Acetyl)-D-Phe-Arg-Trp-Orn)-NH2]
5 | Ac-RD[Pro(trans-4-NH2)][dF]RWK-NH2 (lactam 2-7, also called peptide No. 80) [Ac-Arg-cyclo(Asp-Pro(4R-NH2)-D-Phe-Arg-Trp-Lys)-NH2]

target: T1, human recombinant melanocortin-4 …; assay: competitive inhibition of Eu-NDP-α-MSH (TRF), hMC4-R HEK-293 membranes
Procedure: After incubation for 90 minutes at 37° C., the reaction was stopped by filtration over AcroWell 96-well filter plates (Pall Life Sciences). The filter plates were washed 4 times with 200 μL of ice-cold phosphate-buffered saline. DELFIA Enhancement solution (PerkinElmer Life Sciences) was added to each well. The plates were incubated on a shaker for 15 minutes and read at 340 nm excitation and 615 nm emission wavelengths. Each assay was conducted in duplicate and mean values were utilized. Ki values were determined by curve-fitting with Graph-Pad Prism® software using a one-site fixed-slope competition binding model.
as §1

Ki [nM] | Binder
0.7 | Ac-RD[Hyp(Bzl)][dF]RWK-NH2 (lactam 2-7, also called peptide No. 15) [Ac-Arg-cyclo(Asp-Hyp(Bzl)-D-Phe-Arg-Trp-Lys)-NH2]
3020 | B5
144 | B6
19 | Ac-RDA[dF]RWK-NH2 (lactam 2-7, also called peptide No. 9) [Ac-Arg-cyclo(Asp-Ala-D-Phe-Arg-Trp-Lys)-NH2]
